This is an account of results in patent CN110577594A (UNIV NORTHWEST A&F, dated 2019).

For one experiment, the target named is T1, 金黄色葡萄球菌表面蛋白A (Staphylococcus aureus, UniProt P38507 37-477).
T1 construct: whole, on cells; also called 葡萄球菌蛋白A; spA
In words: direct ELISA on coated whole S. aureus (ATCC25923, ATCC29213, ATCC26111), HRP-conjugated nanobody.

Another experiment deals with T2, 金黄色葡萄球菌肠毒素B (Staphylococcus aureus, UniProt P01552 28-266).
T2 sequence: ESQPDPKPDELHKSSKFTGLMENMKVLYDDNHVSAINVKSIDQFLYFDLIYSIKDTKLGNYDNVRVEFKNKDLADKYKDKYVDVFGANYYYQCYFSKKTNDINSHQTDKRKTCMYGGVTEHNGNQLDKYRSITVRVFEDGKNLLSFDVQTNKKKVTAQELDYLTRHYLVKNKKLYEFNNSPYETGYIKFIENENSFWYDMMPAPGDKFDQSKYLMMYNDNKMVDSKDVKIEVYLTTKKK
Nature of the experiment: direct ELISA, antigen coated, HRP-conjugated nanobody.

B1: 金黄色葡萄球菌肠毒素A纳米抗体A21 (VHH)
VHH: ESGGGSVQAGGSLRLSCAASRNTYSYCSMGWYRQAPGKERELVSSIKSDDRTVYADSVKGRFTISRGNAKNTVHLLMNSLKPEDTAMYYCTFRCLERSGGETRYWGQGTQVTVS
notes: also called Clone A21; A21克隆
B1: the figures for the binding result in the experiment with 金黄色葡萄球菌表面蛋白A and with 金黄色葡萄球菌肠毒素B were “no binding (tested: 10 7 cfu/mL)” and “no binding (tested: 500ng/mL)”, respectively.
